Assays:
CD36 = CD36 (Homo sapiens, UniProt P16671); assay: ELISA binding to plate-coated human CD36; set-up: purchased Sino Biological 10752-H08H; details: recombinant human CD36 coated plates
Description: To perform ELISA assays, 96-well ELISA plates were coated over night with human CD36 (Sino Biological, reference 10752-H08H) or mouse CD36 (Sino Biological, reference 50422-M08H) recombinant proteins at a concentration of 0.25 mg/ml. After two washes with PBS, plates were blocked with 4% skimmed milk in PBS for 1 hour at 37° C. Blocking solution was discarded and plates were washed five times with 200 μl/well PBS-Tween20 (0.5%). Primary antibodies were either omitted (control blocking solution treatment) or mixed in blocking solution at several dilutions ranging from 0.01 nM to 0.5 μM. The primary antibody solutions were added to the wells and incubated over night at 4° C. After 5 washes with 200 ul/well of PBS-Tween20 (0.5%), plates were incubated for 1 hour at room temperature with a goat anti-mouse HRP-conjugated antibody (Abeam, reference ab97235) diluted 1:2000 in blocking solution. Plates were then washed 5 times with 200 μl/well of PBS-Tween20 (0.5%), incubated with 100 μl/well TMB and detected after 10 minutes, 30 minutes, or 60 minutes with a spectrophotometer at a wave length of 630 nm.

FaDu cells = assay: FaDu orthotopic mouse model of oral cancer metastasis; format: in vivo
Description: NOD scid gamma (NSG) (NOD.Cg-Prkdc^scidII2rg^tm1Wj1/SzJ) mice were purchased from Charles River and crossed in-house. All mice were housed under a regimen of 12h light/12h dark cycles and SPF conditions, and all procedures were evaluated and approved by the CEEA (Ethical Committee for Animal Experimentation) from the Government of Catalunya. SCC intra-tongue injection was performed as previously described (Oskarsson et al., 2014; Nieman et al., 2011). Briefly, mice were anesthetized by intraperitoneal injection with a mixture of 50 mg per kg of ketamine and 0.5 mg per kg of medetomidin, and SCC cells resuspended in 30 μl PBS were injected into each mouse tongue with a BD ultra-fine 6 mm needle. Mice were monitored for the luciferase bioluminescent signal immediately after injection (TO) and once weekly thereafter with a Xenogen IVIS Imaging System-100 (Caliper Life Sciences). Briefly, animals were injected by retro-orbital injection with 50 μl of D-luciferin (Promega) diluted in 1×PBS at 5 mg ml^−1. Continuous administration of isofluorane gas was provided to ensure anesthetizing animals during imaging. Data was quantified with the Living Image software version 4.4 (Caliper Life Sciences). Quantifications were calculated with unsaturated pixels. Color scale minimum and maximum values are shown in pictures.
Studies on the combination of the effects of the ONA-0-v1 anti-CD36 antibody, both with and without cisplatin, were performed in NSG mice (immuno-deficient). The studies included both male and female mice. All mice were inoculated with commercially available FaDu (ATCC) cancer cells, transduced with a retroviral vector expressing luciferase and the green fluorescent protein (Luc-GFP). FaDu cells were derived from a squamous cell carcinoma (i.e., from an oral cancer). Prior to inoculation, the FaDu cells were cultured in a humidified incubator at 37° C. with 5% CO2, and were grown in EMEM (LONZA) supplemented with 5 μg ml^−1 penicillin/streptomycin and 10% FBS (GIBCO).
For each mouse, 100,000 FaDu cells were inoculated via orthotopic injection.
Treatment of the inoculated mice began nine days after inoculation with the cancer cells. Inoculated mice were divided into four distinct treatment groups.
Antibody treatments were administered via intraperitoneal (i.p.) injection daily at a dose of 1 mg/kg. Cisplatin was administered twice weekly at a dose of 2 mg/kg (Groups 2 and 4). […] During the course of treatment, mice were observed once weekly using an in vivo imaging system (IVIS). Further, mouse body weight was measured twice weekly to update appropriate dosage amounts. At the end of the treatment period, the mice were sacrificed, and organs and tissues were collected for performance of immunohistochemistry analysis.

OVCAR-3 cells = assay: OVCAR-3 orthotopic mouse model of ovarian cancer (Example 9); format: in vivo
Description: Studies of the effects of the ONA-0-v1 and 1G04 anti-CD36 antibodies on ovarian cancer were performed in NSG mice (immuno-deficient). The studies included only female mice. All mice were inoculated with commercially available OVCAR-3 (ATCC) cancer cells. OVCAR-3 cells were derived from a human progressive adenocarcinoma of the ovary (i.e., from an ovarian cancer). For each mouse, a piece of an OVCAR-3 xenograft was implanted orthotopically. Prior to inoculation, the OVCAR-3 cells were cultured in a humidified incubator at 37° C. with 5% CO2, and were grown in RPMI-1640 supplemented with 5 μg ml^−1 penicillin/streptomycin, 0.01 mg/ml bovine insulin and 20% FBS (GIBCO).
Treatment of the implanted mice began 7 days after implantation with the OVCAR-3 tumor pieces. Inoculated mice were divided into one of three treatment groups: vehicle injection control (n=9), ONA-0-v1 treatment (n=9), or 1G04 treatment (n=9). ONA-0-v1 antibody treatments were administered via intraperitoneal (i.p.) injection daily at a dose of 3 mg/kg. 1G04 antibody treatments were administered via i.p. injection TIW (three-times weekly) at a dose of 10 mg/kg. Control mice received an equal volume of vehicle daily. […] Mice were sacrificed at the end of the treatment period. Upon sacrifice, organs and tissues were collected for performance of necropsy and histopathology analysis.

[1] = antibody alone 1 mg/kg i.p. daily
[2] = antibody in combination with cisplatin

Chain of CD36 (P16671 30-439 limits assumed): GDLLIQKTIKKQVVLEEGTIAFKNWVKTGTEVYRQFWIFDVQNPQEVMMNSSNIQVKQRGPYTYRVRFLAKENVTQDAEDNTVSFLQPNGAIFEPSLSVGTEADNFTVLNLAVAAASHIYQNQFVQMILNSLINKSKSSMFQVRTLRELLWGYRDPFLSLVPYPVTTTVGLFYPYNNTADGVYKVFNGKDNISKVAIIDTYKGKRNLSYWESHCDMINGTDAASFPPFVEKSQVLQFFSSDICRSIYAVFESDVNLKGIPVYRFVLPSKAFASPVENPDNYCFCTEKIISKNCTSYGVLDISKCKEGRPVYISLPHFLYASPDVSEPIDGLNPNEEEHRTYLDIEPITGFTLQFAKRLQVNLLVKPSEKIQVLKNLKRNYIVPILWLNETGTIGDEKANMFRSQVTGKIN

B1: ONA-0-v1: murine IgA anti-CD36 antibody; heavy chain SEQ ID NO: 5, light chain SEQ ID NO: 7 (antibody)
heavy: QVQLKQSGADLVRPGASVKLSCKASGYTFTDYYINWVKQRPGQGLEWIARIYPGSGNTYYNEKFKGKATLTAEKSSSTAYMQLSSLTSEDSAVYFCARGIGGGFGMDYWGQGTSVTVSSESARNPTIYPLTLPPVLCSDPVIIGCLIHDYFPFGTMNVTWGKSGKDITTVNFPPALASGGRYTMSSQLTLPAVECPEGESVKCSVQHDSNPVQELDVNCSPTPPPPITIPSCQPSLSLQRPALEDLLLGSDASITCTLNGLRNPEGAAFTWEPSTGKDAVQKKAAQNSCGCYSVSSVLPGCAERWNSGASFKCTVTHPESGTLTGTIAKVTVNTFPPQVHLLPPPSEELALNELLSLTCLVRAFNPKEVLVRWLHGNEELSPESYLVFEPLKEPGEGATTYLVTSVLRVSAETWKQGDQYSCMVGHEALPMNFTQKTIDRLSGKPTNVSVSVIMSEGDGICY
light: SIVMTQTPKFLLVSAGDRITITCKASQSVSDDVAWYQQKPGQSPKLLIYYASNRYTGVPDRFTGSGYGTDFTFTISTVQAEDLAVYFCQQDYSSPLTFGAGTKLEIKRADAAPTVSIFPPSSEQLTSGGASVVCFLNNFYPKDINVKWKIDGSERQNGVLNSWTDQDSKDSTYSMSSTLTLTKDEYERHNSYTCEATHKTSTSPIVKSFNRNEC
modifications: ONA-0-v1 heavy chain; ONA-0-v1 light chain
binding to human CD36 in ELISA (CD36): able to specifically bind
tolerability over the course of treatment (FaDu cells; NSG mice): well-tolerated
effect on mouse body weight relative to isotype control (FaDu cells; antibody alone): did not have any effects
effect on platelet count relative to isotype control (FaDu cells; antibody alone): did not have any effects
growth of lymph node metastases (IVIS relative intensity) (FaDu cells; [1]): able to inhibit growth
inhibition of lymph node metastatic tumor growth relative to IgA isotype control (ratio of IVIS intensity end/start) (FaDu cells; [1]): greater than 50%
effect on cisplatin-mediated weight loss and decrease in platelet count (FaDu cells; [2]): did not significantly enhance
growth of lymph node metastases (IVIS relative intensity) (FaDu cells; [2]): almost complete inhibition
mice in which metastasis into lymph nodes was prevented (FaDu cells; antibody in combination with cisplatin, eight tested mice): five of the eight
mice in which metastasis into lymph nodes was prevented (FaDu cells; single agent, eight tested mice per group): one of the eight
effect on primary tumor (IVIS imaging and H&E staining) (FaDu cells; single agent, antibody 1 mg/kg i.p. daily, cisplatin 2 mg/kg twice weekly): did not have a statistically significant effect
decrease in total number of metastases relative to vehicle (OVCAR-3 cells; ONA-0-v1 3 mg/kg i.p. daily, 1G04 10 mg/kg i.p. TIW): approximately 45%
mice free of metastasis in the liver (OVCAR-3 cells; macroscopic analysis): 78%
mice having 1-2 mm metastasis in the liver (OVCAR-3 cells; macroscopic analysis): 17%
mice having 1-2 mm metastasis in the peritoneal wall (OVCAR-3 cells; macroscopic analysis): 19%
mice having 2-5 mm metastasis in the liver (OVCAR-3 cells; macroscopic analysis): 6%
mice having 2-5 mm metastasis in the peritoneal wall (OVCAR-3 cells; macroscopic analysis): 19%
mice having <1 mm metastasis in the liver (OVCAR-3 cells; macroscopic analysis): none
mice having >5 mm metastasis in the peritoneal wall (OVCAR-3 cells; macroscopic analysis): 19%
mice metastasis-free in the peritoneal wall (OVCAR-3 cells; macroscopic analysis): 44%
animals free of metastases in the lung (OVCAR-3 cells; microscopic analysis): 44%
mean metastasis number in the lungs per mouse (OVCAR-3 cells; microscopic analysis): 1.6
weight of mice throughout the treatment period (OVCAR-3 cells; mouse, in vivo): remained the same
total number of metastases counted (OVCAR-3 cells; visual inspection of organs, sum per group): 29
